The text below walks through data of paper PMC7263513 (bioRxiv, 2020).

B1: C128 (antibody, V domains shown)
VH: EVQLLESGGGLVQPGGSLRLSCAASGFTFSTYAMSWVRQAPGKGLEWVSTITGSGRDTYYADSVKGRFTISRDNSKNTLFLQLNSLRAEDAAVYSCANHPLASGDDYYHYYMDVWGKGTTVTVSS
VL: EIVLTQSPGTLSLSPGERATLSCRASQSVNSRQLAWYQQKPGQAPRLLIYGASSRATGIPERFSGSGSGTDFTLTISRLESEDFAVYHCQQYGSSRALTFGGGTKVEIK
B2: C126 (antibody, V domains shown)
VH: QVQLQESGPGLVKPSETLSLSCAVSGGSIGSYFWSWIRQPPGKGLEWIGYLHYSGSTNYNPSLKSRVTISVDTSKNQFSLKLSSVTAADTAVYYCARLQWLRGAFDIWGQGTMVTVSS
VL: NFMLTQPHSVSESPGKTVTISCTGSSGSIASNYVQWYQQRPGSAPTTVINEDNQRPSGVPDRFSGSIDSSSNSASLTISGLKTEDEADYYCQSYDSSNLVFGGGTKLTVL
B3: C120 (antibody, V domains shown)
VH: EVQLVESGGGLIQPGGSLRLSCAASGFTVSSNYMTWVRQAPGKGLEWVSLIYPGGSTYYADSVKGRFTISRDNSKNTLYLQMNSLRAEDTAVYYCAREGMGMAAAGTWGQGTLVTVSS
VL: AIRMTQSPSSLSASVGDTVTITCQASQDISKYLNWYQQKPGKAPKLLIYDASNLETGVPSRFSGSGSGTDFTFTISSLQPEDIATYYCQQYDNLPQTFGGGTKVEIK
B4: C122 (antibody, V domains shown)
VH: EVQLVESGGGLIQPGGSLRLSCAASGLTVSSNYMSWVRQAPGKGLEWVSVLYSGGSSFYADSVKGRFTISRDNSKNTLYLQMNSLRAEDTAVYYCARESGDTTMAFDYWGQGTLVTVSS
VL: DIQLTQSPSFLSASVGDRVTITCRASQGISSYLAWYQQKPGKAPKLLIYAASTLQSGVPSRFSGSGSGTEFTLTISSLQPEDFATYYCQQLNSDSYTFGQGTKLEIK
B5: C123 (antibody, V domains shown)
VH: EVQLVESGGGLIQPGGSLRLSCAASGVTVSRNYMSWVRQAPGKGLEWVSVIYSGGSTYYADSVKGRFTISRDNSKNTLYLQMNSLRAEDTAVYYCARDLSAAFDIWGQGTMVTVSS
VL: DIQLTQSPSFLSASVGDRVTITCRASQGISSYLAWYQQKPGKAPKLLIYAASTLQSGVPSRFSGSGSGTEFTLTISSLQPEDFATYYCQQLNSYPPAFGQGTRLEIK
B6: C130 (antibody, V domains shown)
VH: QVQLVQSGAEVKKPGASVKVSCKASGYTFTNYYMHWVRQAPGQGLEWMGIINPSGGSTGYAQKFQGRVTMTRDTSTSTVYMELSSLRSEDTAVYYCARSRPTPDWYFDLWGRGTLVTVSS
VL: SYELTQPPSVSVAPGKTARITCGGNNIGSKSVHWYQQKPGQAPVLVIYYDSDRPSGIPERFSGSNSGNTATLTISRVEAGDEADYYCQVWDSSSDHPGVVFGGGTKLTVL
B7: C118 (antibody, V domains shown)
VH: QVQLVESGGGVVQPGRSLRLSCAASGFTFSNYAMHWVRQAPGKGLEWVAVISYDGSNKYYADSVKGRFTISRDNSKNTLYLQMNSLRAEDTAIYYCASGYTGYDYFVRGDYYGLDVWGQGTTVTVSS
VL: QPVLTQSPSASASLGASVKLTCTLSSGHSSYAIAWHQQQPEKGPRYLMKLNTDGSHSKGDGIPDRFSGSSSGAERYLTISSLQSEDEADYYCQTWGTGILVFGGGTKLTVL
B8: C131 (antibody, V domains shown)
VH: QVQLVQSGSEVKKPGSSVKVSCKASGGTFSSYAFSWVRQAPGQGLEWMGRIIPILALANYAQKFQGRVTITADKSTSTAYMELSSLRSEDTAVYYCARVNQAVTTPFSMDVWGQGTTVTVSS
VL: not shown
B9: C121 (antibody, V domains shown)
VH: not shown
VL: QSALTQPASVSGSPGQSITISCTGTSSDVGSYNLVSWYQQHPGKAPKLMIYEGSKRPSGVSNRFSGSKSGNTASLTISGLQAEDEADYYCCSYAGSSTLVFGGGTKLTVL
B10: C124 (antibody, V domains shown)
VH: EVQLVESGGGLVQPGGSLRLSCAASGFTFSGYSMNWVRQAPGKGPEWVSYISRSSSTIYYADSVKGRFTISRDNAKNSLYLQMNSLRDEDTAVYYCAREGARVGATYDTYYFDYWGQGTLVTVSS
VL: EIVLTQSPATLSLSPGERATLSCRASQSFSSYLAWYQQKPGQAPRLLIYDASNRATGIPARFSGSGSGTDFTLTISSLEPEDFAVYYCQQRNNWPPEWTFGQGTKVEIK
B11: C117 (antibody, V domains shown)
VH: QVQLVESGGGVVQPGRSLRLSCAASGFTFSTYAMHWVRQAPGEGLEWVAVISYDGSNTYYADSVKGRFTISRDNSKNTLYLQMNSLRAEDTAVYYCARDPIWFGELLSPPFVHFDYWGQGTLVTVSS
VL: QSVLTQPPSVSAAPGQKVTISCSGSSSNIGNNLVSWYQQLPGTAPKLLIYENNKRPSGIPDRFSGSKSGTSATLGITGLQTGDEADYYCGAWDSSLSAGGVYVFGTGTKVTVL
B12: C116 (antibody, V domains shown)
VH: QVQLVESGGGVVQPGRSLRLSCAASGFTYSTYAMHWVRQAPGKGLEWVAFISYDGSNKYYADSVKGRFTISRDNSKNTLYLQMNSLRAEDTAVYYCARDFYHNWFDPWGQGTLVTVSS
VL: NFMLTQPHSVSESPGKTVTISCTGSSGSIASNYVQWYQQRPGSAPTTVIYEDNQRPSGVPDRFSGSIDRSSNSASLTISGLKTEDEADYYCQSYDSGNHWVVFGGGTRLTVL
B13: C115 (antibody, V domains shown)
VH: QVQLVESGGGLIKPGRSLRLSCTASGFTFGDYAMTWFRQAPGKGLEWVGFIRSKAYGGTTGYAASVKYRFTISRDDSKSIAYLQMDSLKTEDTAVYYCTRWDGWSQHDYWGQGTLVTVSS
VL: DIVMTQSPLSLSVTPGEPASISCRSSQSLLHSNGNNYFDWYLQKPGQSPQLLIYLGSNRASGVPDRFSGSGSGTDFTLKISRVEAEDVGVYYCMQVLQIPYTFGQGTKLEIK
B14: C119 (antibody, V domains shown)
VH: QVQLVQSGAEVKKPGASVKVSCKASGYTFTSYYMHWVRQAPGQGLEWMGIINPSGGSTSYAQKLQGRVTMTRDTSTSTVYMELSSLRSEDTAVYYCARANHETTMDTYYYYYYMDVWGKGTTVTVSS
VL: QSALTQPASVSGSPGQSITISCTGTSSDVGGYKYVSWYQRHPGKAPKLMIYDVSNRPSGVSNRFSGSKSGNTASLTISGLQAEDEADYYCSSYTSSSTSVVFGGGTQLTVL
B15: C114 (antibody, V domains shown)
VH: QVQLVESGGGLIQPGGSLKLSCVVSGFTVSKNYISWVRQAPGKGLEWVSVIFAGGSTFYADSVKGRFAISRDNSNNTLFLQMNSLRVEDTAIYYCARGDGELFFDQWGQGTLVTVSS
VL: QSVLTQPPSVSGAPGQRVTISCTGTSSNIGAGYDVHWYQQLPGRAPKVLISGNNIRPSEVPDRFSGSRSGTSASLAITSLQPEDEAQYYCQSYDSSLYAVFGGGTKLTVL

The experiment has as its target SARS-CoV-2 receptor binding domain (RBD) (Severe acute respiratory syndrome …, UniProt P0DTC2). The experiment in a line: cell-based or functional assay.
For the molecule B1, the “IC50 of neutralisation of SARS-CoV-2 pseudovirus (293T_(ACE2) cells)” value (from here on “IC50”) turned out to be 0.101 µg/mL. B2: the “IC50” value was more than 1 µg/mL. As for B3, the “IC50” value amounted to 0.0133 µg/mL. For B4, the “IC50” value worked out at 0.0228 µg/mL. The figure for B5 is 0.149 µg/mL; for B6 it is more than 1 µg/mL. For the molecule B7, the “IC50” value was 0.104 µg/mL.

For the molecule B8, the “IC50” value was determined as 0.0305 µg/mL. With B9, the “IC50” value came out at 0.00673 µg/mL. Turning to B10, the “IC50” value came out at 0.342 µg/mL. As for B11, the “IC50” value turned out to be 0.348 µg/mL. With B12, the “IC50” value was more than 1 µg/mL. Consider B13, for which the “IC50” value stood at 0.198 µg/mL. The figure for B14 is 0.00912 µg/mL. As for B15, the “IC50” value is more than 1 µg/mL.
